Test results from US20210147564A1 (TENEOBIO, published 2021).

T1: human BCMA ECD protein (Abcam ab50089) (human, UniProt Q02223 1-54)
T1 construct: extracellular domain; Bought protein; also called human BCMA protein; recombinant BCMA protein
T1 sequence (looked up): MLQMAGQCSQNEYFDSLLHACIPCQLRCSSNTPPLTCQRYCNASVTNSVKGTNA

T2: human BCMA on NCI-H929 cells (human, UniProt Q02223 1-184)
T2 construct: whole, on cells; also called H929 human cells that express BCMA; BCMA-expressing cell line (H929)
T2 sequence (looked up): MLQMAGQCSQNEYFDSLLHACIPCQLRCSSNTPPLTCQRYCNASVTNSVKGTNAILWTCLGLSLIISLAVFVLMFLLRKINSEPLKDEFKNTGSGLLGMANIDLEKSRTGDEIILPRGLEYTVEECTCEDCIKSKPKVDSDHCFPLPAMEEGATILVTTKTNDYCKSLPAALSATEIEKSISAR


Columns and labels:
[1] = target: T1, human BCMA ECD protein (Abcam ab50089); experiment: ELISA on human BCMA ECD; Octet off-rate
Procedure: Supernatants of 4 antibodies were tested for binding in a standard ELISA assay to human and cynomolgus BCMA. Binding to recombinant BCMA protein was determined by ELISA using human BCMA ECD obtained from Abcam (ab50089). The BCMA ECD protein was used at a concentration of […] to capture UniAbs at 50 ng/mL. Binding of UniAbs was detected with a goat anti-human IgG HRP conjugated antibody (ThermoFisher 31413). All antibodies were diluted in 1×TBS with 0.05% Tween-20 and 1% dry milk powder.

[2] = target: T2, human BCMA on NCI-H929 cells; experiment: flow cytometry on H929 cells
Procedure: Supernatants of the 4 test anti-BCMA antibodies were also tested by flow cytometry for binding to H929 cells. The samples were measured by flow cytometry using a Guava easyCyte 8HT instrument from EMD Millipore and analyzed using guavaSoft. Bound antibodies were detected with goat anti-human IgG F(ab)2 conjugated to PE (Southern Biotech 2042-09). All antibodies were diluted in PBS with 1% BSA. Positive staining was determined by comparison to staining with a human IgG1 isotype control.

| Binder | binding result [1] | binding result [2] |
| --- | --- | --- |
| heavy chain-only anti-BCMA antibody (UniAb) with the heavy chain variable region of SEQ ID NO: 13 (antibody, V domains shown, Heavy chain-only antibody expressed in HEK cells (CH1 deleted, no light chain), tested as supernatant; also called anti-BCMA UniAb; HCAb) VH: QVQLVESGGGLVQPGGSLRLSCAASGFTFSSHAMTWVRQAPGKGLEWVAAISGSGDFTHYADSVKGRFTISRDNSKNTVSLQMNNLRAEDTAVYYCAKDEDGGSLLGYRGQGTLVTVSS | binds | binds |
| heavy chain-only anti-BCMA antibody (UniAb) with the heavy chain variable region of SEQ ID NO: 15 (antibody, V domains shown, Heavy chain-only antibody expressed in HEK cells (CH1 deleted, no light chain), tested as supernatant; also called anti-BCMA UniAb; HCAb) VH: EVQLLESGGGLVQPGGSLRLSCAASGFTFSSYAMSWVRQAPGKGLEWVSSISGSGDYIYYADSVKGRFTISRDISKNTLYLQMNSLRAEDTAVYYCAKEGTGANSSLADYRGQGTLVTVSS | binds | binds |

Continued, values first:

| binding result [1] | binding result [2] | Binder |
| --- | --- | --- |
| binds | binds | heavy chain-only anti-BCMA antibody (UniAb) with the heavy chain variable region of SEQ ID NO: 14 (antibody, V domains shown, Heavy chain-only antibody expressed in HEK cells (CH1 deleted, no light chain), tested as supernatant; also called anti-BCMA UniAb; HCAb) VH: EVQLLESGGGLIQPGGSLRLSCAASGFTFSSHAMTWVRQAPGKGLEWVSAISGSGDYTHYADSVKGRFTISRDNSKNTVYLQMNSLRAEDSAVYYCAKDEDGGSLLGHRGQGTLVTVSS |
| binds | binds | heavy chain-only anti-BCMA antibody (UniAb) with the heavy chain variable region of SEQ ID NO: 12 (antibody, V domains shown, Heavy chain-only antibody expressed in HEK cells (CH1 deleted, no light chain), tested as supernatant; also called anti-BCMA UniAb; HCAb) VH: QVQLVESGGGLVQPGGSLRLSCAASGFTFTNHAMSWVRQAPGKGLELVSSISGNGRTTYYADSVKGRFTISRDISKNTLDLQMNSLRAEDTAVYYCAKDGGETLVDSRGQGTLVTVSS |
